Experimental data: article PMC3317979

How the values were obtained:
[1] = tested on: 933W repressor (cI) (bacteriophage 933W (lambdoid prophage of E. coli O157:H7 EDL933)); test: EMSA
[2] = tested on: 933W repressor S41A (bacteriophage 933W (lambdoid prophage of E. coli O157:H7 EDL933)); test: EMSA
[3] = tested on: 933W repressor K46A (bacteriophage 933W (lambdoid prophage of E. coli O157:H7 EDL933)); test: EMSA
[4] = tested on: 933W repressor (cI) (bacteriophage 933W (lambdoid prophage of E. coli O157:H7 EDL933)); test: EMSA (direct and competition)
[5] = tested on: 933W repressor (cI) (bacteriophage 933W (lambdoid prophage of E. coli O157:H7 EDL933)); test: competition EMSA
[6] = scale: fold affinity vs S41A on consensus

933W OR1 gave a binding signal (fold higher affinity than consensus) [1] of 10.

For 933W consensus operator, the binding signal ([2]; scale: fold lower affinity than wild-type repressor) was > 10, the Kd [3] was 6.1 µM and the Kd [4] was 4.8 nM.

With consensus 1A (symmetric C-G to A-T) the binding signal (fold change in affinity vs consensus) [5] was < 2.

With consensus 2A (symmetric, G-C to A-T) the binding signal (fold lower affinity than consensus) [5] was > 6 and the binding signal [2, 6] was 1.

With consensus 2T (symmetric, G-C to T-A) the binding signal (fold lower affinity than consensus) [5] was > 6 and the binding signal [2, 6] was 1.

With consensus 3C (symmetric A-T to C-G) the binding signal (fold lower affinity than consensus) [5] was > 6.

consensus 3G (symmetric A-T to G-C) showed a binding signal (fold lower affinity than consensus) [5] of 2.

In the case of consensus 3T (symmetric A-T to T-A), the binding signal (fold higher affinity than consensus) [5] is reported as > 3.

consensus 4 G-5meC in one half-site was tested, and the binding signal (fold affinity vs consensus (identical)) ([1]; 5-methylcytosine paired with G at position 4) was 1.

With consensus 4 G-C in one half-site the binding signal (fold lower affinity than consensus) [1] was > 5.

With consensus 5 C-C7G in one half-site the binding signal (fold lower affinity than consensus) ([1]; 7-deazaguanine replaces G at position 5) was > 5.

For consensus 6C (symmetric T-A to C-G), the binding signal (fold higher affinity than consensus) [5] was > 2.5.

For consensus 7'A (C-G to A-T at 7' only), the binding signal (fold higher affinity than consensus) [5] was > 4.

Work on consensus 8G (central A-T to G-C) yielded a binding signal (fold lower affinity than consensus) [5] of 3.

Substance nonspecific DNA (NS) has a Kd [5] of 6.1 µM and a Kd [3] of 6.1 µM.
